The numbers were not newly measured in article PMC8125740, which cites them from elsewhere.

For orientation: Kd means the constant that tells how readily two partners part at equilibrium.

For the data set, the target named is Amyloid beta (Homo sapiens) (UniProt P05067).

Take “Cellular prion protein (from UniProt P04156)”: the Kd was 1 nM.
